Source: US5679542
“And” between values parts separate entries of the source, which are not always exact repeats. Equal entries are not always repeated.

Tests used:
[1] = biological target: platelet glycoprotein GPIb-IX complex (Homo sapiens (Human)) (UniProt P07359)
[2] = biological target: platelet glycoprotein GPIb-IX complex (Homo sapiens (Human)) (UniProt P07359); experiment: inhibition of botrocetin-induced 125I-vWF binding to washed platelets (procedure of Ruggeri et al.); competitor vWF

Substance | botrocetin/ristocetin-induced agglutination inhibition assay using PRP [1] | concentration that inhibited the binding of vWF to platelets [2] [nM]
CC, platelet antiadhesive purified from Cerastes cerastes venom | 3 µg/mL and 2 µg/mL | 
CHH-B, platelet antiadhesive (GPIb inhibitor) purified from Crotalus horridus horridus venom |  | < 200
purified protein from C. horridus horridus, as prepared in Example 2 (as tested in Example 6) | 2 µg/mL and 3 µg/mL | 
